Starred links: 1 amine or outer side, 2 acyl side, 3 side chain; linkers in the order of their positions; H or OH if unused. Positions of bridges follow the written chain, without caps; N, C: chain ends. Non-standard residues stand in square brackets, D forms with d. *: point of attachment. Tyr(Me) = 4-OMe-Phe, COc1ccc(C[C@H](N[*:1])C(=O)[*:2])cc1; dPhe(4-CONH2) = NC(=O)c1ccc(C[C@@H](N)C(=O)O)cc1; Phe(4-Cl) = N[C@@H](Cc1ccc(Cl)cc1)C(=O)O; dPhe(4-Cl) = N[C@H](Cc1ccc(Cl)cc1)C(=O)O; dCit = NC(=O)NCCC[C@@H](N)C(=O)O; Tle = CC(C)(C)[C@H](N)C(=O)O; Nicotinoyl = O=C(c1cccnc1)*
B1: Compound 37: H-Cpa-cyclo[DCys-Tyr-D-(4-carbamoyl)Phe-Lys-Ser-Cys]-DTyr-NH2 (peptide)
peptide: XXYXKSCX
HELM: PEPTIDE1{[N[C@@H](Cc1ccc(Cl)cc1)C(=O)[*:2]].[dC].Y.[NC(=O)c1ccc(C[C@@H](N[*:1])C(=O)[*:2])cc1].K.S.C.[dY].[am]}$PEPTIDE1,PEPTIDE1,2:R3-7:R3$$$V2.0
SMILES: NCCCC[C@@H]1NC(=O)[C@@H](Cc2ccc(C(N)=O)cc2)NC(=O)[C@H](Cc2ccc(O)cc2)NC(=O)[C@H](NC(=O)[C@@H](N)Cc2ccc(Cl)cc2)CSSC[C@@H](C(=O)N[C@H](Cc2ccc(O)cc2)C(N)=O)NC(=O)[C@H](CO)NC1=O
B2: Compound 36: H-Cpa-cyclo[DCys-Cpa-D-(4-carbamoyl)Phe-Lys-Thr-Cys]-DTyr-NH2 (peptide)
peptide: H-[Phe(4-Cl)][dC][Phe(4-Cl)][dPhe(4-CONH2)]KTC[dY]-NH2
modifications: disulfide 2-7
SMILES: C[C@@H](O)[C@@H]1NC(=O)[C@H](CCCCN)NC(=O)[C@@H](Cc2ccc(C(N)=O)cc2)NC(=O)[C@H](Cc2ccc(Cl)cc2)NC(=O)[C@H](NC(=O)[C@@H](N)Cc2ccc(Cl)cc2)CSSC[C@@H](C(=O)N[C@H](Cc2ccc(O)cc2)C(N)=O)NC1=O
B3: Compound 39: H-Cpa-cyclo[Cys-Tyr-D-(4-carbamoyl)Phe-Lys-Thr-Cys]-DTyr-NH2 (peptide)
peptide: XCYXKTCX
HELM: PEPTIDE1{[N[C@@H](Cc1ccc(Cl)cc1)C(=O)[*:2]].C.Y.[NC(=O)c1ccc(C[C@@H](N[*:1])C(=O)[*:2])cc1].K.T.C.[dY].[am]}$PEPTIDE1,PEPTIDE1,2:R3-7:R3$$$V2.0
SMILES: C[C@@H](O)[C@@H]1NC(=O)[C@H](CCCCN)NC(=O)[C@@H](Cc2ccc(C(N)=O)cc2)NC(=O)[C@H](Cc2ccc(O)cc2)NC(=O)[C@@H](NC(=O)[C@@H](N)Cc2ccc(Cl)cc2)CSSC[C@@H](C(=O)N[C@H](Cc2ccc(O)cc2)C(N)=O)NC1=O
B4: Compound 26: H-Cpa-cyclo[DCys-Tyr-D-(4-carbamoyl)Phe-(N-Acetyl)Lys-Thr-Cys]-DTyr-NH2 (peptide)
peptide: XXYXXTCX
HELM: PEPTIDE1{[N[C@@H](Cc1ccc(Cl)cc1)C(=O)[*:2]].[dC].Y.[NC(=O)c1ccc(C[C@@H](N[*:1])C(=O)[*:2])cc1].K.T.C.[dY].[am]}|PEPTIDE2{[ac]}$PEPTIDE1,PEPTIDE2,5:R3-1:R2|PEPTIDE1,PEPTIDE1,2:R3-7:R3$$$V2.0
SMILES: CC(=O)NCCCC[C@@H]1NC(=O)[C@@H](Cc2ccc(C(N)=O)cc2)NC(=O)[C@H](Cc2ccc(O)cc2)NC(=O)[C@H](NC(=O)[C@@H](N)Cc2ccc(Cl)cc2)CSSC[C@@H](C(=O)N[C@H](Cc2ccc(O)cc2)C(N)=O)NC(=O)[C@H]([C@@H](C)O)NC1=O
B5: Compound 40: H-Cpa-cyclo[DCys-Tyr-D-(4-carbamoyl)Phe-Lys-Thr-Cys]-DPhe-NH2 (peptide)
peptide: XXYXKTCX
HELM: PEPTIDE1{[N[C@@H](Cc1ccc(Cl)cc1)C(=O)[*:2]].[dC].Y.[NC(=O)c1ccc(C[C@@H](N[*:1])C(=O)[*:2])cc1].K.T.C.[dF].[am]}$PEPTIDE1,PEPTIDE1,2:R3-7:R3$$$V2.0
SMILES: C[C@@H](O)[C@@H]1NC(=O)[C@H](CCCCN)NC(=O)[C@@H](Cc2ccc(C(N)=O)cc2)NC(=O)[C@H](Cc2ccc(O)cc2)NC(=O)[C@H](NC(=O)[C@@H](N)Cc2ccc(Cl)cc2)CSSC[C@@H](C(=O)N[C@H](Cc2ccccc2)C(N)=O)NC1=O
B6: Compound 43: H-Cpa-cyclo[DCys-4-Cl-Phe-D-(4-carbamoyl)Phe-Lys-Thr-Cys]-4-Cl-D-Phe-NH2 (peptide)
peptide: H-[Phe(4-Cl)][dC][Phe(4-Cl)][dPhe(4-CONH2)]KTC[dPhe(4-Cl)]-NH2
modifications: disulfide 2-7
SMILES: C[C@@H](O)[C@@H]1NC(=O)[C@H](CCCCN)NC(=O)[C@@H](Cc2ccc(C(N)=O)cc2)NC(=O)[C@H](Cc2ccc(Cl)cc2)NC(=O)[C@H](NC(=O)[C@@H](N)Cc2ccc(Cl)cc2)CSSC[C@@H](C(=O)N[C@H](Cc2ccc(Cl)cc2)C(N)=O)NC1=O
B7: Compound 33: H-Cpa-cyclo[DCys-Tyr-D-4-(carbamoyl)Phe-Lys-Val-Cys]-DTyr-NH2 (peptide)
peptide: XXYXKVCX
HELM: PEPTIDE1{[N[C@@H](Cc1ccc(Cl)cc1)C(=O)[*:2]].[dC].Y.[NC(=O)c1ccc(C[C@@H](N[*:1])C(=O)[*:2])cc1].K.V.C.[dY].[am]}$PEPTIDE1,PEPTIDE1,2:R3-7:R3$$$V2.0
SMILES: CC(C)[C@@H]1NC(=O)[C@H](CCCCN)NC(=O)[C@@H](Cc2ccc(C(N)=O)cc2)NC(=O)[C@H](Cc2ccc(O)cc2)NC(=O)[C@H](NC(=O)[C@@H](N)Cc2ccc(Cl)cc2)CSSC[C@@H](C(=O)N[C@H](Cc2ccc(O)cc2)C(N)=O)NC1=O
B8: Compound 42: H-Cpa-cyclo[DCys-Tyr-D-(4-carbamoyl)Phe-Lys-Thr-Cys]-4-Cl-D-Phe-NH2 (peptide)
peptide: H-[Phe(4-Cl)][dC]Y[dPhe(4-CONH2)]KTC[dPhe(4-Cl)]-NH2
modifications: disulfide 2-7
SMILES: C[C@@H](O)[C@@H]1NC(=O)[C@H](CCCCN)NC(=O)[C@@H](Cc2ccc(C(N)=O)cc2)NC(=O)[C@H](Cc2ccc(O)cc2)NC(=O)[C@H](NC(=O)[C@@H](N)Cc2ccc(Cl)cc2)CSSC[C@@H](C(=O)N[C@H](Cc2ccc(Cl)cc2)C(N)=O)NC1=O
B9: Compound 41: H-Cpa-cyclo[DCys-Phe-D-(4-carbamoyl)Phe-Lys-Thr-Cys]-DPhe-NH2 (peptide)
peptide: XXFXKTCX
HELM: PEPTIDE1{[N[C@@H](Cc1ccc(Cl)cc1)C(=O)[*:2]].[dC].F.[NC(=O)c1ccc(C[C@@H](N[*:1])C(=O)[*:2])cc1].K.T.C.[dF].[am]}$PEPTIDE1,PEPTIDE1,2:R3-7:R3$$$V2.0
SMILES: C[C@@H](O)[C@@H]1NC(=O)[C@H](CCCCN)NC(=O)[C@@H](Cc2ccc(C(N)=O)cc2)NC(=O)[C@H](Cc2ccccc2)NC(=O)[C@H](NC(=O)[C@@H](N)Cc2ccc(Cl)cc2)CSSC[C@@H](C(=O)N[C@H](Cc2ccccc2)C(N)=O)NC1=O
B10: Compound 35: H-Cpa-cyclo[DCys-Phe-D-(4-carbamoyl)Phe-Lys-Thr-Cys]-DTyr-NH2 (peptide)
peptide: XXFXKTCX
HELM: PEPTIDE1{[N[C@@H](Cc1ccc(Cl)cc1)C(=O)[*:2]].[dC].F.[NC(=O)c1ccc(C[C@@H](N[*:1])C(=O)[*:2])cc1].K.T.C.[dY].[am]}$PEPTIDE1,PEPTIDE1,2:R3-7:R3$$$V2.0
SMILES: C[C@@H](O)[C@@H]1NC(=O)[C@H](CCCCN)NC(=O)[C@@H](Cc2ccc(C(N)=O)cc2)NC(=O)[C@H](Cc2ccccc2)NC(=O)[C@H](NC(=O)[C@@H](N)Cc2ccc(Cl)cc2)CSSC[C@@H](C(=O)N[C@H](Cc2ccc(O)cc2)C(N)=O)NC1=O
B11: Compound 31: H-Cpa-cyclo[DCys-Tyr-D-Cit-(N-Me)Lys-Thr-Cys]-DTyr-NH2 (peptide)
peptide: H-[Phe(4-Cl)][dC]Y[dCit]K(Me)TC[dY]-NH2
modifications: disulfide 2-7
SMILES: CNCCCC[C@@H]1NC(=O)[C@@H](CCCNC(N)=O)NC(=O)[C@H](Cc2ccc(O)cc2)NC(=O)[C@H](NC(=O)[C@@H](N)Cc2ccc(Cl)cc2)CSSC[C@@H](C(=O)N[C@H](Cc2ccc(O)cc2)C(N)=O)NC(=O)[C@H]([C@@H](C)O)NC1=O
B12: Compound 38: H-Cpa-cyclo[DCys-4-OMe-Phe-D-(4-carbamoyl)Phe-Lys-Thr-Cys]-DTyr-NH2 (peptide)
peptide: H-[Phe(4-Cl)][dC][Tyr(Me)][dPhe(4-CONH2)]KTC[dY]-NH2
modifications: disulfide 2-7
SMILES: COc1ccc(C[C@@H]2NC(=O)[C@H](NC(=O)[C@@H](N)Cc3ccc(Cl)cc3)CSSC[C@@H](C(=O)N[C@H](Cc3ccc(O)cc3)C(N)=O)NC(=O)[C@H]([C@@H](C)O)NC(=O)[C@H](CCCCN)NC(=O)[C@@H](Cc3ccc(C(N)=O)cc3)NC2=O)cc1
B13: Compound 29: H-Cpa-cyclo[DCys-Tyr-D-(4-carbamoyl)Phe-Arg-Thr-Cys]-DTyr-NH2 (peptide)
peptide: XXYXRTCX
HELM: PEPTIDE1{[N[C@@H](Cc1ccc(Cl)cc1)C(=O)[*:2]].[dC].Y.[NC(=O)c1ccc(C[C@@H](N[*:1])C(=O)[*:2])cc1].R.T.C.[dY].[am]}$PEPTIDE1,PEPTIDE1,2:R3-7:R3$$$V2.0
SMILES: C[C@@H](O)[C@@H]1NC(=O)[C@H](CCCNC(=N)N)NC(=O)[C@@H](Cc2ccc(C(N)=O)cc2)NC(=O)[C@H](Cc2ccc(O)cc2)NC(=O)[C@H](NC(=O)[C@@H](N)Cc2ccc(Cl)cc2)CSSC[C@@H](C(=O)N[C@H](Cc2ccc(O)cc2)C(N)=O)NC1=O
B14: Compound 28: H-Cpa-cyclo[DCys-Tyr-D-(4-(4-methoxyphenyl)ureido)Phe-Lys-Thr-Cys]-DTyr-NH2 (peptide)
peptide: XXYXKTCX
HELM: PEPTIDE1{[N[C@@H](Cc1ccc(Cl)cc1)C(=O)[*:2]].[dC].Y.[COc1ccc(NC(=O)Nc2ccc(C[C@@H](N[*:1])C(=O)[*:2])cc2)cc1].K.T.C.[dY].[am]}$PEPTIDE1,PEPTIDE1,2:R3-7:R3$$$V2.0
SMILES: COc1ccc(NC(=O)Nc2ccc(C[C@H]3NC(=O)[C@H](Cc4ccc(O)cc4)NC(=O)[C@H](NC(=O)[C@@H](N)Cc4ccc(Cl)cc4)CSSC[C@@H](C(=O)N[C@H](Cc4ccc(O)cc4)C(N)=O)NC(=O)[C@H]([C@@H](C)O)NC(=O)[C@H](CCCCN)NC3=O)cc2)cc1
B15: Compound 30: H-Cpa-cyclo[D-Cys-Tyr-D-Lys(Nε-nicotinoyl)-Lys(Nε-Me)-Thr-Cys]-D-Tyr-NH2 (peptide)
peptide: H-[Phe(4-Cl)][dC]Y[dK](Nicotinoyl)K(Me)TC[dY]-NH2
modifications: disulfide 2-7
SMILES: CNCCCC[C@@H]1NC(=O)[C@@H](CCCCNC(=O)c2cccnc2)NC(=O)[C@H](Cc2ccc(O)cc2)NC(=O)[C@H](NC(=O)[C@@H](N)Cc2ccc(Cl)cc2)CSSC[C@@H](C(=O)N[C@H](Cc2ccc(O)cc2)C(N)=O)NC(=O)[C@H]([C@@H](C)O)NC1=O
B16: Compound 34: H-Cpa-cyclo[DCys-Tyr-D-4-(carbamoyl)Phe-Lys-tBu-Gly-Cys]-DTyr-NH2 (peptide)
peptide: H-[Phe(4-Cl)][dC]Y[dPhe(4-CONH2)]K[Tle]C[dY]-NH2
modifications: disulfide 2-7
SMILES: CC(C)(C)[C@@H]1NC(=O)[C@H](CCCCN)NC(=O)[C@@H](Cc2ccc(C(N)=O)cc2)NC(=O)[C@H](Cc2ccc(O)cc2)NC(=O)[C@H](NC(=O)[C@@H](N)Cc2ccc(Cl)cc2)CSSC[C@@H](C(=O)N[C@H](Cc2ccc(O)cc2)C(N)=O)NC1=O

The binders below were run against somatostatin receptor type 2 (SSTR2) (UniProt P30874 1-369) (assay: cell-based or functional assay).
somatostatin receptor type 2 (SSTR2), sequence (P30874 whole entry): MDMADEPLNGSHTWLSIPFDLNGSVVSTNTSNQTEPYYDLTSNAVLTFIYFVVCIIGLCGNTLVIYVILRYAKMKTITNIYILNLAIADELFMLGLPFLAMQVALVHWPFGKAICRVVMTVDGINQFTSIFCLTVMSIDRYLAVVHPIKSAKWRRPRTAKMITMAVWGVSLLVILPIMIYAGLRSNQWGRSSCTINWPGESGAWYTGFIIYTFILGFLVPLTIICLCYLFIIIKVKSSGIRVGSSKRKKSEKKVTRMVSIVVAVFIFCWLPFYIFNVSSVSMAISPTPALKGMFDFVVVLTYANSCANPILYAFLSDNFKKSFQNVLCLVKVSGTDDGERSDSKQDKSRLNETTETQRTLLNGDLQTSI

Row | Binder | IC50 (PathHunter β-Arrestin, antagonist mode) [µM]
1 | B1 | 0.0106
2 | B2 | 0.0287
3 | B3 | > 1
4 | B4 | > 1
5 | B5 | 0.0162
6 | H-[Phe(4-Cl)][dC]Y[dPhe(4-benzamidophenyl)]KTC[dY]-NH2 (disulfide 2-7) [Compound 27: H-Cpa-cyclo[DCys-Tyr-D-(4-Benzamidophenyl)Phe-Lys-Thr-Cys]-DTyr-NH2] | 0.0347
7 | B6 | 0.0256
8 | B7 | 0.056
9 | H-[Phe(4-Cl)][dC]Y[dPhe(4-CONH2)]K(diMe)TC[dY]-NH2 (disulfide 2-7) [Compound 32: H-Cpa-cyclo[D-Cys-Tyr-D-Phe(4-carbamoyl)-Lys(N-diMe)-Thr-Cys]-D-Tyr-NH2] | 0.00246
10 | B8 | 0.00984
11 | B9 | 0.0244
12 | B10 | 0.0359
13 | B11 | 0.0704
14 | B12 | 0.0244
15 | B13 | 0.398
16 | B14 | 0.104
17 | B15 | 0.177
18 | B16 | 0.0434

From patent publication US20190040102A1 (CDRD VENTURES, published 2019)
